Measured values taken from patent US20180156808A1, “METHODS FOR DIAGNOSIS AND PROGNOSIS OF CANCERS OF EPITHELIAL ORIGIN” (Children's Medical Center Corporation, priority 2004, published 2018).
Each block holds one molecule with its values, some of them ahead of it.

Target: T1, ADAM 12-S (Homo sapiens, UniProt O43184)
T1 construct: The full-length human ADAM 12-S gene was cloned into plasmid (p1151); made in house; host or cells: Cos-7 cells (ATCC, CRL 1651)
T1 sequence (O43184 208-738 isoform O43184-2 limits assumed): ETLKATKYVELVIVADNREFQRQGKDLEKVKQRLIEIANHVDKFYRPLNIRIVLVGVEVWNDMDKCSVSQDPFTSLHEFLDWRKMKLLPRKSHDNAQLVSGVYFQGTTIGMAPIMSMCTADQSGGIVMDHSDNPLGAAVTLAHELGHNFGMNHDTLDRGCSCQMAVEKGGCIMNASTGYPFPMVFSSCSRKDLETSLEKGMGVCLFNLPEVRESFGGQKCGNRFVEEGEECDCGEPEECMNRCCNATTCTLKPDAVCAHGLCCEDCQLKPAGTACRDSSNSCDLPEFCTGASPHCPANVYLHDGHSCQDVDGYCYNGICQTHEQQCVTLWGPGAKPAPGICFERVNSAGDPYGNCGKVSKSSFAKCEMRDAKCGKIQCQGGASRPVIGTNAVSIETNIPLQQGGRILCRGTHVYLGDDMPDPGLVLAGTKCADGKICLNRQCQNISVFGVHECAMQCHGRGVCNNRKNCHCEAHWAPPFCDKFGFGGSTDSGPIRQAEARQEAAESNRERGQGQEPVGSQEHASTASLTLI
T1 sequence (O43184 29-207 partner limits assumed): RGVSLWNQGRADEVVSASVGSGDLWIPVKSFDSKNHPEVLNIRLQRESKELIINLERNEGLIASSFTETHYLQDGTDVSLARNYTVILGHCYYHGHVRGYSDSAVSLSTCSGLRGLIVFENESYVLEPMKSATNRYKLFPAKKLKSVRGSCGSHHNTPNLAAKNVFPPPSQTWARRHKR
Experiment: Inhibition of gelatin degradation by ADAM 12 (SDS-PAGE, Coomassie staining)
Assay type: biochemical
Conditions: ADAM 12 160 nM, 37° C., 18 h; for inhibition of gelatin degradation by ADAM 12: 30 μg gelatin
Procedure: The full-length human ADAM 12-S gene was cloned into plasmid (p1151) and transfection of Cos-7 cells (ATCC, CRL 1651) was conducted as previously described (5). Expressed recombinant ADAM 12-S secreted into the conditioned medium, was purified as previously described with minor modifications. Briefly, conditioned media from transfected Cos-7 cells was subjected to successive steps of SP Sepharose and ConA Sepharose chromatography as described (6). ADAM 12-S containing fractions from the ConA Sepharose column were pooled and after buffer exchange applied to a Vivapure H Mini Q column (VivaScience, Carlsbad, Calif.) pre-equilibrated with buffer A containing 0.05% CHAPS. Pure ADAM 12-S was detected in the flow-through fraction as determined by SDS-PAGE and immunoblot analysis.
Gelatin, Type IV collagen, fibronectin and casein-degrading activity of ADAM 12-S was measured as previously described (14). ADAM 12-S (1 μM) was mixed with non-reducing sample buffer and separated on a 10% polyacrylamide gel containing either 0.1% gelatin, 0.1% Type IV collagen or 0.02% fibronectin and a 12% polyacrylamide gel containing 0.1% casein. After electrophoresis, the gel was washed with 2.5% Triton X-100 for 30 min. Substrate digestion was conducted by incubating the gel in 50 mM Tris, pH 7.6, containing 5 mM CaCl2, 1 μM ZnCl2 and 0.02% NaN3 at 37° C. for 18 h. Gels were stained with 0.1% Coomassie and bands of enzyme activity were detected as zones of clearance on a background of uniform blue staining. […] For inhibition assays, ADAM 12 (160 nM) was incubated with 30 μg gelatin in assay buffer (50 mM Tris, pH 7.5) in the presence or absence of various inhibitors 5 mM 1, 10-phenanthroline, 5 mM EDTA, 1 mM Marimastat or two different concentrations (100 and 500 nM) of either TIMP-1, TIMP-2, TIMP-3 or TIMP-4 in a final volume of 30 μl at 37° C. for 18 h. Reactions were stopped with the addition of non-reducing sample buffer and the samples resolved by SDS-PAGE analysis followed by Coomassie staining.

[1] = inhibitor 100 and 500 nM (even at concentrations 5-fold higher than the enzyme)

Molecule: CNC(=O)[C@@H](NC(=O)[C@H](CC(C)C)[C@H](O)C(=O)NO)C(C)(C)C [Marimastat]
inhibition of gelatin degradation by ADAM 12 (inhibitor 1 mM): partial inhibition

Molecule: c1cnc2c(c1)ccc1cccnc12 [1, 10-phenanthroline]
inhibition of gelatin degradation by ADAM 12 (inhibitor 5 mM): inhibited

Molecule: O=C(O)CN(CCN(CC(=O)O)CC(=O)O)CC(=O)O [EDTA]
inhibition of gelatin degradation by ADAM 12 (inhibitor 5 mM): inhibited

Now from value to molecule:

inhibition of the gelatinase activity of ADAM 12 [1]: did not inhibit
Molecule: TIMP-1: endogenous inhibitor

inhibition of the gelatinase activity of ADAM 12 (inhibitor 500 nM): effective inhibitor
B1: TIMP-3: endogenous inhibitor (protein, UniProt P35625 24-211, looked up)
Metalloproteinase inhibitor 3: CTCSPSHPQDAFCNSDIVIRAKVVGKKLVKEGPFGTLVYTIKQMKMYRGFTKMPHVQYIHTEASESLCGLKLEVNKYQYLLTGRVYDGKMYTGLCNFVERWDQLTLSQRKGLNYRYHLGCNCKIKSCYYLPCFVTSKNECLWTDMLSNFGYPGYQSKHYACIRQKGGYCSWYRGWAPPDKSIINATDP

inhibition of the gelatinase activity of ADAM 12 [1]: did not inhibit
B2: TIMP-4: endogenous inhibitor (protein, UniProt Q99727 30-224, looked up)
Metalloproteinase inhibitor 4: CSCAPAHPQQHICHSALVIRAKISSEKVVPASADPADTEKMLRYEIKQIKMFKGFEKVKDVQYIYTPFDSSLCGVKLEANSQKQYLLTGQVLSDGKVFIHLCNYIEPWEDLSLVQRESLNHHYHLNCGCQITTCYTVPCTISAPNECLWTDWLLERKLYGYQAQHYVCMKHVDGTCSWYRGHLPLRKEFVDIVQP
